The source of these data is patent US8637043B2, “Compositions useful as ligands for the formyl peptide receptor like 1 receptor and methods of use thereof” (Chemocentryx, Inc., priority 2001, dated 2014).

Entries after “also recorded” stand apart in the source; their conditions may differ. Ends that are not written are not given here.

For assay [1], the system named is human neutrophils. Description: Calcium flux in human neutrophils. It counts as cell-based. Conditions: for calcium flux: human neutrophils. How it is done:
(§1) Ca^2+ mobilization responses were performed using the intracellular ratiometric fluorescent dye, lndo-1. Cells were loaded with Indo-1/AM (3 μM; Molecular Probes, Eugene, Oreg.) in culture medium (45 min, 20° C., 10^7 cells/ml). After dye loading, cells were washed once with 10 ml PBS) and resuspended at 10^6 cell/ml in HBSS containing 1% FBS. Cytosolic [Ca^2+] release was determined using excitation at 350 nm using a Photon Technology International fluorimeter (excitation at 350 nm, ratioed dual emission at 400 and 490 nm).
The human recombinant chemokines, leukotactin, MlP-1α, three known CKβ8 variants CKβ8(1-99), CKβ8(25-99), CKβ8-1(1-116) and a novel NH2-terminal truncated form of CKβ8-1, CKβ8-1 (25-116) were obtained from R&D Systems (Minneapolis, Minn.). Human monocytes were generated from buffy coats (Stanford Blood Center, Palo Alto, Calif.) following a standard protocol. Briefly, PBMC were isolated by standard density gradient centrifugation (Ficoll-Paque-Plus, Pharmacia). Monocytes were purified using CD14 Microbeads (Miltenyi, Auburn, Calif.) magnetic positive selection. Human neutrophils were isolated from fresh peripheral blood from healthy individuals by gradient centrifugation on Ficoll-Hypaque (Hyclone, Calif.).
Human monocytes were either generated from buffy coats (Stanford Blood Center, Palo Also, Calif.) or from fresh blood of healthy individuals following a standard protocol. Briefly, PBMC were isolated by a Ficoll-Paque gradient centrifugation (Ficoll-Paque-Plus, Pharmacia). Monocytes were purified by CD14 Microbeads (Miltenyi) magnetic positive selection. Human neutrophils were isolated from fresh blood by dextran sedimentation and gradient centrifugation Ficoll-Paque gradient centrifugation. All cells were washed and resuspended (1×10^7/ml) in RPMI medium with 10% FBS.
Ca^2+ mobilization responses were performed using an intracellular ratiometric fluorescent dye, Indo-1. Cells were loaded with Indo-1/AM (3 μM; Molecular Probes (Eugene, Oreg.)) in culture medium (45 min, 20° C., 10^7 cells/mi). After dye loading, cells were washed once (10 ml PBS) and resuspended at 10^6 cell/ml in HBSS containing 1% FBS. Cytosolic [Ca^2+] release was determined using excitation at 350 nm using a Photon Technology International fluorimeter (excitation at 350 nm, ratioed dual emission at 400 and 490 nm).
A general note: A change in cytosolic calcium serves as a functional read-out for many receptors and channels.

Assay [2] deals with T1, CCR1 (Homo sapiens, UniProt P32246).
T1 construct: full length cDNA encoding CCR1 was cloned by the polymerase chain reaction (PCR) from genomic DNA isolated from human peripheral blood cells; expressed in transfected cells; pcDNA3.1 vector)
T1 sequence (P32246 1-355): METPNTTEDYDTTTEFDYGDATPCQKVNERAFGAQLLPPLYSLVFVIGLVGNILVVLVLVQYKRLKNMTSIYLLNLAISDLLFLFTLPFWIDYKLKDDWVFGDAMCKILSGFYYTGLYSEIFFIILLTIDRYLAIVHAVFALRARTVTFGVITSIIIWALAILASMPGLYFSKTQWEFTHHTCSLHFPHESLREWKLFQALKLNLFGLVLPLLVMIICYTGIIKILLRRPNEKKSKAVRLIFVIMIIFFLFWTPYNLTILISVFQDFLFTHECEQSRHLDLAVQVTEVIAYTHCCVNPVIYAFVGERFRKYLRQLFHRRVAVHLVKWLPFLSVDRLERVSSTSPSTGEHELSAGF
Description: Intracellular calcium flux in HEK293-CCR1 transfectants. The class given is cell-based. The settings on record: 100 nM; for maximal receptor stimulation compared with leukotactin: same concentration of leukotactin; for calcium flux: HEK293-CCR1 transfectants. How it is done: The human recombinant chemokines, leukotactin, three known CKβ8 variants CKβ8(1-99), CKβ8(25-99), CKβ8-1(1-116) and a novel NH2-terminal truncated form of CKβ8-1, CKβ8-1 (25-116) were obtained from R&D Systems (Minneapolis, Minn.). CKβ8-1(25-116) was compared with the other three variants for the ability to elicit an intracellular calcium mobilization in stable human CCR1 transfected […] cells. Human HEK293-CCR1 cells were prepared using Fugena 6 (Roche, Ind.) following the manufacturer's protocol. The HEK-293 cell lines were maintained in DMEM with 10% FBS supplemented with 800 μg/ml G-418.
Stable expression of human chemokine receptor CCR1 in HEK293 cell was obtained as follows: full length cDNA encoding CCR1 was cloned by the polymerase chain reaction (PCR) from genomic DNA isolated from human peripheral blood cells. The PCR product was cloned into pcDNA3.1 (Invitrogen, Carlsbad, Calif.) using standard molecular cloning procedures and completely sequenced to confirm identity.
Two micrograms of the CCR1/pcDNA3.1 construct were used to transfect the HEK293 cells as follows. FuGENE:DNA complex was prepared by mixing 6.0 μl FuGENE 6 reagent (Roche Molecular Biochemicals, Calif.) and 2 μg CCR1/pcDNA3.1 in 100 ul of serum-free medium (Hyclone, Colo.). After incubating for 30 minutes at room temperature, the complex was added to a 60 mm culture plate containing 0.5-1×10^6 cells in 10 ml DMEM medium supplemented with 10% FBS (Hyclone, Colo.). After mixing, the cells were returned to the incubator to culture at 37° C. for two days. At 48 hours post-transfection, Genetinin (G418) (Mediatech, Herndon, Va.) was added at a final concentration of 800 ug/ml. The cells were then plated in 96-well plates at a concentration of 20,000 cells/well. After 2-3 weeks under G418 selection, stable geneticin-resistant CCR1 expressing cells were assessed for their ability to mobilize calcium in response to MIP-1α at a concentration of 1-500 nM.
as §1
With HEKCCR1-293 transfectants, CKβ8-1(25-116) and the other CKβ8 variants induced a rapid calcium flux at 100 nM.

The test system of assay [3] is monocytes. Briefly: Cross-desensitization with leukotactin, monocytes. It counts as cell-based, human. As for the experimental part:
In cross-desensitization tests tests, cells were stimulated sequentially with leukotactin and then the chemokines CKβ8(1-99), CKβ8(25-99), CKβ8-1(1-116), and CKβ8-1(25-116). On HEK293-CCR1 transfectants (prepared as in Example 1), leukotactin induced similar patterns of receptor desensitization to all variants.
Similar receptor cross-desensitization tests were performed using both monocytes and neutrophils (prepared as in Example 2).

On to MLWRRKIGPQMTLSHAAY [SEQ ID NO: 6], for which, in assay [1] (Example 8), the calcium flux result is reported as “robust calcium flux”.
On to MLWRRKIGPQMTLSHAAG [SEQ ID NO: 1], for which, in assay [1] (Example 8), the calcium flux result is reported as “robust calcium flux”.

B1: CKβ8(25-99): known truncated CKβ8 variant, human recombinant chemokine from R&D Systems (protein, listed as Homo sapiens)
chain: RFHATSADCCISYTPRSIPCSLLESYFETNSECSKPGVIFLTKKGRRFCANPSDKQVQVCMRMLKLDTRIKTRKN
As to B1, in assay [1] (100 nM), the calcium flux entry is listed as “neither MlP-1α nor CKβ8(1-99), CKβ8(25-99) or CKβ8(1-116) induced a calcium flux”. Also, in assay [2], the “maximal receptor stimulation compared with leukotactin” value is listed as “equivalent to those obtained with the same concentration of the CCR1 agonist, leukotactin” and the calcium flux result was “high calcium response; also recorded: lower”. Besides, the “desensitization by leukotactin prestimulation” value (from here on “desensitization”) in assay [3] is “completely desensitized”.

B2: CKβ8-1(1-116): alternatively spliced form of CKβ8, 116 amino acids, human recombinant chemokine (protein, listed as Homo sapiens)
chain: RVTKDAETEFMMSKLPLENPVLLDMLWRRKIGPQMTLSHAAGFHATSADCCISYTPRSIPCSLLESYFETNSECSKPGVIFLTKKGRRFCANPSDKQVQVCMRMLKLDTRIKTRKN
As to B2, the calcium flux result in assay [1] (100 nM) is reported as “neither MlP-1α nor CKβ8(1-99), CKβ8(25-99) or CKβ8(1-116) induced a calcium flux”; in assay [2] it was “lower”. The “desensitization” value in assay [3] is “completely desensitized”.

B3: CKβ8-1(25-116): novel NH2-terminal truncated form of CKβ8-1, SEQ ID NO: 16, human recombinant chemokine (protein, listed as Homo sapiens)
chain: MLWRRKIGPQMTLSHAAGFHATSADCCISYTPRSIPCSLLESYFETNSECSKPGVIFLTKKGRRFCANPSDKQVQVCMRMLKLDTRIKTRKN
Consider B3, for which the calcium flux entry in assay [1] (100 nM) is on record as “induced an unique calcium release”; in assay [1] (Example 8) it was “robust calcium flux”; in assay [2] it was “high calcium response”. Also, the “magnitude of calcium release compared with leukotactin” value in assay [1] (neutrophils, same amount of leukotactin) is reported as “much higher than observed for the same amount of leukotactin stimulation”. Moreover, the “maximal receptor stimulation compared with leukotactin” value in assay [2] is on record as “equivalent to those obtained with the same concentration of the CCR1 agonist, leukotactin”. In addition, the “desensitization” value in assay [3] is “did not desensitize”.
